The results in this text go back to paper PMC7110144, “Structural basis for centromere maintenance by Drosophila CENP‐A chaperone CAL1” (The EMBO Journal, 2020).

T1: His-CAL1(1-160) (Drosophila melanogaster, UniProt Q9VEN2 1-160)
T1 construct: CAL1, Drosophila melanogaster, residues 1-160; In crystal form I only CAL1 residues 17-47 were seen; the authors conclude that CAL1 was proteolytically cleaved during crystallisation; also called His-CAL1(1-160 WT); source: E. coli BL21 (DE3) Gold, purified (HisTrap native or Ni-NTA denaturing; SEC); not shown: His, N-terminal, kept
T1 sequence (looked up): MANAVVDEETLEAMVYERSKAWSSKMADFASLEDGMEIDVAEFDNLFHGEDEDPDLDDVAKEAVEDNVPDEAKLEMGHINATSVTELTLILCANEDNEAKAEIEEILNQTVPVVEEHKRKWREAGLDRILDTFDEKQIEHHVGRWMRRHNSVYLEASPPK

T2: CENP-A-GFP-LacI (in U2OS cells) (Drosophila melanogaster, UniProt Q9V6Q2 1-225)
T2 construct: CENP-A (CID), Drosophila melanogaster; source: U2OS cells with a LacO array, transfected (pN2-CMV vector), in cells; not shown: GFP, C-terminal, kept; LacI, C-terminal, kept
T2 sequence (looked up): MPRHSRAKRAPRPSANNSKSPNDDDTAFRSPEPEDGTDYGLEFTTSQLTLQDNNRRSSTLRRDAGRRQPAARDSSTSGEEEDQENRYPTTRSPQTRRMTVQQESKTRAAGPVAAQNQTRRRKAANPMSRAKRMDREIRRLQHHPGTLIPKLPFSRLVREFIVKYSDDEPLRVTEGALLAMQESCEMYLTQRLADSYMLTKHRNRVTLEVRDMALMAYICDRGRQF

B1: CENP-A(101-225) (domain or fragment, Drosophila melanogaster, UniProt Q9V6Q2 101-225, looked up)
chain: QQESKTRAAGPVAAQNQTRRRKAANPMSRAKRMDREIRRLQHHPGTLIPKLPFSRLVREFIVKYSDDEPLRVTEGALLAMQESCEMYLTQRLADSYMLTKHRNRVTLEVRDMALMAYICDRGRQF
notes: also called CID; histone fold domain of CENP-A
B2: CENP-C(1264-1411) (domain or fragment, Drosophila melanogaster, UniProt Q9VHP9 1264-1411, looked up)
chain: GPVVFSTPLRDEQEEASTKLMQWLRGVGDAPPSASMSDENASVSSANELIFCQVDGIDYAFYNTKEKAMLGYMRFKPYQKRSMKQAKVHPLKLLVQFGEFNVETLAVGEEKEVHSVLRVGDMIEIDRGTRYSIQNAIDKVSVLMCIRS
notes: also called CENP-C cupin domain; source: E. coli Rosetta (DE3), purified; tag removed with 3C, SEC; not shown: His, N-terminal, cleaved
B3: His-CENP-C(1264-1411) (domain or fragment)
chain: B2 chain
notes: vector pEC-K-3C-His; also called CENP-C cupin domain; source: E. coli Rosetta (DE3), purified (HisTrap, SEC); not shown: His, N-terminal, kept
B4: His-CAL1(1-160) F43R (domain or fragment)
chain: T1 sequence (looked up) with F43R
notes: CAL1, Drosophila melanogaster, residues 1-160, codon optimised; source: E. coli, recombinant, purified; not shown: His, N-terminal, kept
B5: His-CAL1(1-160-LL-841-979) (domain or fragment, Drosophila melanogaster)
chain: MANAVVDEETLEAMVYERSKAWSSKMADFASLEDGMEIDVAEFDNLFHGEDEDPDLDDVAKEAVEDNVPDEAKLEMGHINATSVTELTLILCANEDNEAKAEIEEILNQTVPVVEEHKRKWREAGLDRILDTFDEKQIEHHVGRWMRRHNSVYLEASPPKGSSGGSSGGGDPDCTVVTSTTGCEPPASERQEIPATIKITKRGILLHSPSAPEGASFTLTEQGLGKIIGERWARKYLKYHIGSRSFDSRHSVYYQPTPQLAAALSAPQDAQNIGNISGSSASDDDIFEQINRYGTVYSILENNSGDK
notes: CAL1, Drosophila melanogaster, residues 1-160; flexible linker (LL) in place of residues 161-840; not shown: His, N-terminal, kept
B6: CAL1(841-979) (domain or fragment, Drosophila melanogaster, UniProt Q9VEN2 841-979, looked up)
chain: GGDPDCTVVTSTTGCEPPASERQEIPATIKITKRGILLHSPSAPEGASFTLTEQGLGKIIGERWARKYLKYHIGSRSFDSRHSVYYQPTPQLAAALSAPQDAQNIGNISGSSASDDDIFEQINRYGTVYSILENNSGDK
notes: only residues 890-913 are seen in the structure; source: E. coli BL21 (DE3) Gold, purified; not shown: His6, N-terminal, cleaved; SUMO, N-terminal, cleaved
B7: CAL1(F43R)-V5 (in U2OS cells) (natural protein, Drosophila melanogaster, UniProt Q9VEN2 1-979, looked up)
chain: MANAVVDEETLEAMVYERSKAWSSKMADFASLEDGMEIDVAERDNLFHGEDEDPDLDDVAKEAVEDNVPDEAKLEMGHINATSVTELTLILCANEDNEAKAEIEEILNQTVPVVEEHKRKWREAGLDRILDTFDEKQIEHHVGRWMRRHNSVYLEASPPKYLPPHHNSISDESDESMHSIDTARYIQQSRRRNAHMTNKNMTTIKMYRKHSHKRDELRAKYAYGDEQEHRHHMQAVLLRRRERERQLAYLASTPMQCVYSSGHHMRRKNLRKRRINSWMFDSASSSEEDTSFGGCDCHSCRRHYALSRSVYQSCPYGRGQREYHHRQMASRTMHTMRRQHTFDMEMDLRPRLPENECSCCNSDRLCSNVIHIANSSTEEWVVENRSNHLTQETQEKTRKQKHQPMDARKVSHQPVCSKGHEQKPLSSKATSVSKLVLSKEKYMQMFDSESSDEDNALAKKGLLCCSDKKKGMTFPTPNAAGKITHPTSSAKKAIRKEARPNGLAQIQEEGPTATNSPIESTYLPVAHMKSVSIDGSSGTSATFESPAKKAPKRGIRETSPLNGNELQQLISTIPIADEKASSLMEKVDNCIGRESFDDRNKDFMHMENSSTKTAVEKSTKQKRVSGKKSEIPKSIITNNEILEKNSTETLSEKQVAAKAKKQSVRKTGATGKPSTSRLKKSEKTKTTSSVTSTSKLEQVREEESDVSSEVLAKPKPQCSTTASILKQGGDGASNSEDDLQIALAMSKATYKEEQQKRKKTKREPSNKQPQSPAEKSMTVFNNQSVACNSTALANDTACYRVLPKRRGVKRAAAVSTTEEKTATNSSSSPTSSLEEMGSPTGGDPDCTVVTSTTGCEPPASERQEIPATIKITKRGILLHSPSAPEGASFTLTEQGLGKIIGERWARKYLKYHIGSRSFDSRHSVYYQPTPQLAAALSAPQDAQNIGNISGSSASDDDIFEQINRYGTVYSILENNSGDK
notes: CAL1, Drosophila melanogaster; non-codon-optimised; source: U2OS cells with a LacO array, transfected, in cells; not shown: V5, C-terminal, kept
B8: CENP-A(144-225) (domain or fragment, Drosophila melanogaster, UniProt Q9V6Q2 144-225, looked up)
chain: PGTLIPKLPFSRLVREFIVKYSDDEPLRVTEGALLAMQESCEMYLTQRLADSYMLTKHRNRVTLEVRDMALMAYICDRGRQF

Numbering of substitutions follows the chain as printed. Names may count otherwise.

The target in data set [1] is T3, H4 (Drosophila melanogaster, UniProt P84040 1-103).
T3 construct: histone H4, Drosophila melanogaster (dm H4); plasmid pET22b H4, gift of Karolin Luger; also called histone H4; dm H4
In words: crystal structure; crystal form I; complex at 27 mg/ml in 20 mM Tris-HCl pH 8.0, 1 M NaCl, 5 mM DTT; 0.01 M cobalt(II) chloride, 0.1 M MES pH 6.5, 1.8 M ammonium sulphate, 18°C; crystals after about a year. The conditions noted are these: both partners purified.

Data set [2] has as its target T1, His-CAL1(1-160). In words: cross-linking; gel-filtered complex dialysed into PBS; EDC/sulpho-NHS 1.5 h or BS3 2 h at RT; gel bands digested with trypsin, LC-MS/MS. The conditions noted are these: both partners purified.
Data set [3] deals with the molecule itself. Nature of the data set: SEC-MALS; Superdex 75 increase 10/300 GL, 50 mM HEPES pH 8.0, 100 mM NaCl, 1 mM TCEP, 4°C.
The target of data set [4] is T4, His-CAL1(1-160-LL-841-979)/CENP-A(101-225)/H4 (Drosophila melanogaster, UniProt Q9VEN2 1-160; Q9VEN2 841-979; Q9V6Q2 101-225; P84040 1-103).
T4 construct: CAL1, Drosophila melanogaster, residues 1-160; flexible linker (LL) in place of residues 161-840; histone H4, Drosophila melanogaster (dm H4); plasmid pET22b H4; not shown: His, N-terminal, kept; copies: + +
Nature of the data set: SEC; refolded His-CAL1(1-160-LL-841-979)/CENP-A(101-225)/H4 alone or mixed with 1.2 molar excess of His-CENP-C(1264-1411); Superdex 200 increase 10/300, 20 mM Tris-HCl pH 8.0, 100 mM NaCl, 2 mM DTT. The conditions noted are these: both partners purified. On the technique in general: SEC sorts molecules by how far they enter the pores of the column.

Data set [5] deals with T5, CENP-A(101-225)-H4 (Drosophila melanogaster, UniProt Q9V6Q2 101-225; P84040 1-103).
T5 construct: histone H4, Drosophila melanogaster (dm H4); plasmid pET22b H4, gift of Karolin Luger; also called CENP-A/H4; CENP-A/H4 complex
In words: pull-down; His-CAL1(1-160) WT or mutant mixed with 1.3 times molar excess of CENP-A(101-225)-H4 and captured on Ni-NTA resin; 20 mM Tris-HCl pH 8.0, 2 M NaCl, 10% glycerol, 0.5% NP40, 35 mM imidazole, 2 mM βME, 30 min at 4°C; Coomassie-stained SDS-PAGE. Particulars: both partners purified.

In data set [6] the target is T5, CENP-A(101-225)-H4. Nature of the data set: SEC; refolded His-CAL1(1-160-LL-841-979)/CENP-A(101-225)/H4 alone or mixed with 1.2 molar excess of His-CENP-C(1264-1411); Superdex 200 increase 10/300, 20 mM Tris-HCl pH 8.0, 100 mM NaCl, 2 mM DTT. Particulars: both partners purified.
Data set [7] has as its target B3. Described as above. The conditions noted are these: both partners purified.
In data set [8] the target is B2. In words: AUC; sedimentation velocity (49 k rpm) and sedimentation equilibrium (26 k rpm), 4°C; untagged proteins and SEC purified untagged complex; a range of concentrations, up to 10 mg/ml. Particulars: both partners purified.
Data set [9] deals with T2, CENP-A-GFP-LacI (in U2OS cells). Nature of the data set: LacO/LacI tethering assay (recruitment seen by immunofluorescence); human U2OS cells with a LacO array; GFP-LacI fusion tethered, recruitment of co-transfected CAL1-V5 measured at the LacO spot. The conditions noted are these: partners not purified.
Data set [10] deals with T1, His-CAL1(1-160). Nature of the data set: crystal structure; crystal form II; complex in 20 mM Tris-HCl pH 8.0, 1 M NaCl, 2 mM DTT; lithium sulphate, 0.1 M Tris pH 8.5, PEG 4000; anisotropic diffraction. Particulars: both partners purified.
The target of data set [11] is T3, H4. The description is as above. The conditions noted are these: both partners purified.

With B1, the binding result in data set [1] and in data set [2] was “binds” in each case.

B2: the “stoichiometry N” value in data set [3] was found to be 2.

With B3, the binding result in data set [4] is “binds”.

Take B4: the binding result in data set [5] is given as “binds”.

In the case of B5, the binding result in [6] and in [7] was “binds” each time.

B6: in data set [8], the “stoichiometry N” value was 1 CAL1 per CENP-C dimer (2:1 CENP-C:CAL1).

As for B7, the “fold change of recruitment against CAL1 WT” value in [9] is 3 fold less than CAL1 WT.

Regarding B8, the binding result in [10] and in data set [11] was “binds” in each case.

In general, stoichiometry N refers to the number of molecules, sites or subunits per partner or assembly.
